Test results as given in patent US20210388087A1 (Chugai, published 2021).
Positions count from the first letter of the chain named.

B1: CE115HA000/GLS3000 V94R (antibody, IgG1, name in Kabat numbering, V domains shown)
VH: QVQLVESGGGVVQPGRSLRLSCAASGFTFSNAWMHWVRQAPGKGLEWVAQIKAKSNNYATYYAESVKGRFTISRDDSKNSLYLQMNSLKTEDTAVYYCRYVHYGAYYGVDAWGQGTTVTVSS
VL: DIVMTQSPLSLPVTPGEPASISCRSSQSLVHSNRNTYLHWYQQKPGQAPRLLIYKVSNRFSGVPDRFSGSGSGTDFTLKISRVEAEDVGVYYCGQGTQRPYTFGQGTKLEIK
notes: one-arm IgG1
B2: CE115HA000/GLS3000 V94T (antibody, IgG1, name in Kabat numbering, V domains shown)
VH: B1 VH
VL: B1 VL with R99T
notes: one-arm IgG1
B3: CE115HA000/GLS3000 Y32A (antibody, IgG1, name in Kabat numbering, V domains shown)
VH: B1 VH
VL: B1 VL with Y37A, R99V
notes: one-arm IgG1
B4: CE115HA000/GLS3000 Y96E (antibody, IgG1, name in Kabat numbering, V domains shown)
VH: B1 VH
VL: B1 VL with R99V, Y101E
notes: one-arm IgG1
B5: CE115HA000/GLS3000 Y32D (antibody, IgG1, name in Kabat numbering, V domains shown)
VH: B1 VH
VL: B1 VL with Y37D, R99V
notes: one-arm IgG1
B6: CE115HA000/GLS3000 Y32F (antibody, IgG1, name in Kabat numbering, V domains shown)
VH: B1 VH
VL: B1 VL with Y37F, R99V
notes: one-arm IgG1
B7: CE115HA000/GLS3000 Y96H (antibody, IgG1, name in Kabat numbering, V domains shown)
VH: B1 VH
VL: B1 VL with R99V, Y101H
notes: one-arm IgG1
B8: CE115HA000/GLS3000 Y32P (antibody, IgG1, name in Kabat numbering, V domains shown)
VH: B1 VH
VL: B1 VL with Y37P, R99V
notes: one-arm IgG1
B9: CE115HA000/GLS3000 Y96F (antibody, IgG1, name in Kabat numbering, V domains shown)
VH: B1 VH
VL: B1 VL with R99V, Y101F
notes: one-arm IgG1
B10: CE115HA000/GLS3000 Y96D (antibody, IgG1, name in Kabat numbering, V domains shown)
VH: B1 VH
VL: B1 VL with R99V, Y101D
notes: one-arm IgG1
B11: CE115HA000/GLS3000 V94Y (antibody, IgG1, name in Kabat numbering, V domains shown)
VH: B1 VH
VL: B1 VL with R99Y
notes: one-arm IgG1
B12: CE115HA000/GLS3000 V94S (antibody, IgG1, name in Kabat numbering, V domains shown)
VH: B1 VH
VL: B1 VL with R99S
notes: one-arm IgG1
B13: CE115HA000/GLS3000 Y96L (antibody, IgG1, name in Kabat numbering, V domains shown)
VH: B1 VH
VL: B1 VL with R99V, Y101L
notes: one-arm IgG1
B14: CE115HA000/GLS3000 V94W (antibody, IgG1, name in Kabat numbering, V domains shown)
VH: B1 VH
VL: B1 VL with R99W
notes: one-arm IgG1

Each binder was assayed against T1, CD3 epsilon homodimer protein (UniProt P07766 23-126) (assay: SPR, antibody over immobilised CD3e homodimer;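 also: SPR at 25 °C with CD3 epsilon homodimer amine-coupled to a CM4 sensor chip and antibody flowed over as analyte in HBS-EP+ running buffer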).
T1 construct: also called CD3 (CD3 epsilon)
T1 sequence (P07766 23-126): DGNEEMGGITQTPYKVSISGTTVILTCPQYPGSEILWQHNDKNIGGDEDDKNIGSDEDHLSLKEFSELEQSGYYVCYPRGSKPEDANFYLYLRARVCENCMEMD

Compared with B1, B2 is lower in “KD ratio to GLS3000” value: 1.11 for the first, 1.06 for the second.

First: B3
Second: B4
The “KD ratio to GLS3000” value of the first is higher: 66.8 for the first, 46.8 for the second.

First: B5
Second: B6
The “KD ratio to GLS3000” value of the first is higher: 25.9 for the first, 4.51 for the second.

First: B7
Second: B8
The “KD ratio to GLS3000” value of the first is higher: 80.3 for the first, 62 for the second.

Compared with B9, B10 is higher in “KD ratio to GLS3000” value: 0.86 for the first, 40.9 for the second.

Going from B11 to B12, the “KD ratio to GLS3000” value falls from 2.45 to 0.81.

Going from B13 to B14, the “KD ratio to GLS3000” value falls from 1.84 to 1.81.
